B1: SMTNL2 (parent)
chain: ETAAGKGKGEARARLKRSQSFGVA
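Further: lentivirally expressed fusions sorted by FACS into six bins by GFP to DsRed ratio, PSI derived from sequencing read proportions per bin multiplied by bin number.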

The data set covers variants of B1. The experiment in a line: protein stability index of a GFP-peptide fusion (GPS, HEK-293T) (PSI 1-6); higher = more stable. To be noted: c terminus: a fixed tail appended.
Take ETAAGKGKGEAAARLKRSQSFGVA [R12A]: the protein stability index stood at 4.76.
On to ETAAGKGKGEAPARLKRSQSFGVA [R12P], for which the protein stability index was determined as 4.67.
Consider ETAAGSGKGEARARLKRSQSFGVA [K6S], for which the protein stability index was 4.62.
Consider ETAAGWGKGEARARLKRSQSFGVA [K6W], for which the protein stability index came out at 3.79.
For the variant ETAAGRGKGEARARLKRSQSFGVA [K6R], the protein stability index was 4.39.
To ETAAGEGKGEARARLKRSQSFGVA [K6E] belongs 5.05.
Turning to ETAAGPGKGEARARLKRSQSFGVA [K6P], the protein stability index was found to be 4.59.
With ETAAGMGKGEARARLKRSQSFGVA [K6M], the protein stability index was 3.87.
As for ETAAGHGKGEARARLKRSQSFGVA [K6H], the protein stability index was 4.53.
Take ETAAGDGKGEARARLKRSQSFGVA [K6D]: the protein stability index came to 4.85.
Take ETAAGIGKGEARARLKRSQSFGVA [K6I]: the protein stability index is 4.54.
For ETAAGNGKGEARARLKRSQSFGVA [K6N], the protein stability index turned out to be 4.32.
With ETAAGGGKGEARARLKRSQSFGVA [K6G], the protein stability index was found to be 3.58.
In the case of ETAAGVGKGEARARLKRSQSFGVA [K6V], the protein stability index was 4.23.
For ETAAGQGKGEARARLKRSQSFGVA [K6Q], the protein stability index was determined as 3.41.
The value for ETAAGYGKGEARARLKRSQSFGVA [K6Y] was 3.9; that for ETAAGAGKGEARARLKRSQSFGVA [K6A] was 4.62.
ETAAGLGKGEARARLKRSQSFGVA [K6L]: the protein stability index was 4.04.
The value for ETAAGCGKGEARARLKRSQSFGVA [K6C] was 2.43; that for ETAAGFGKGEARARLKRSQSFGVA [K6F] was 4.56.
On to ETAAGTGKGEARARLKRSQSFGVA [K6T], for which the protein stability index was 4.78.
For the variant ETAAGKGKGMARARLKRSQSFGVA [E10M], the protein stability index amounted to 4.44.
The value for ETAAGKGKGDARARLKRSQSFGVA [E10D] was 4.38; that for ETAAGKGKGSARARLKRSQSFGVA [E10S] was 4.46; that for ETAAGKGKGGARARLKRSQSFGVA [E10G] was 4.49.
With ETAAGKGKGIARARLKRSQSFGVA [E10I], the protein stability index was found to be 3.96.
For the variant ETAAGKGKGQARARLKRSQSFGVA [E10Q], the protein stability index is 3.9.
The value for ETAAGKGKGKARARLKRSQSFGVA [E10K] was 4.29; that for ETAAGKGKGHARARLKRSQSFGVA [E10H] was 4.44; that for ETAAGKGKGAARARLKRSQSFGVA [E10A] was 4.33.
Turning to ETAAGKGKGPARARLKRSQSFGVA [E10P], the protein stability index worked out at 4.27.
The value for ETAAGKGKGCARARLKRSQSFGVA [E10C] was 3.51; that for ETAAGKGKGWARARLKRSQSFGVA [E10W] was 3.4; that for ETAAGKGKGYARARLKRSQSFGVA [E10Y] was 3.35.
On to ETAAGKGKGVARARLKRSQSFGVA [E10V], for which the protein stability index was 4.27.
The value for ETAAGKGKGFARARLKRSQSFGVA [E10F] was 3.7.
For the variant ETAAGKGKGTARARLKRSQSFGVA [E10T], the protein stability index was found to be 4.38.
With ETAAGKGKGLARARLKRSQSFGVA [E10L], the protein stability index came to 3.79.
For ETAAGKGKGRARARLKRSQSFGVA [E10R], the protein stability index came to 4.53.
For ETAAGKGKGNARARLKRSQSFGVA [E10N], the protein stability index amounted to 4.21.
To ETAATKGKGEARARLKRSQSFGVA [G5T] belongs 4.38; to ETAACKGKGEARARLKRSQSFGVA [G5C], 4.41.
In the case of ETAAFKGKGEARARLKRSQSFGVA [G5F], the protein stability index was 4.04.
For ETAAEKGKGEARARLKRSQSFGVA [G5E], the protein stability index was determined as 4.79.
With ETAALKGKGEARARLKRSQSFGVA [G5L], the protein stability index was determined as 4.56.
In the case of ETAADKGKGEARARLKRSQSFGVA [G5D], the protein stability index was determined as 3.84.
As for ETAAAKGKGEARARLKRSQSFGVA [G5A], the protein stability index worked out at 4.94.
As for ETAAKKGKGEARARLKRSQSFGVA [G5K], the protein stability index turned out to be 4.8.
For ETAAVKGKGEARARLKRSQSFGVA [G5V], the protein stability index came out at 4.34.
As to ETAASKGKGEARARLKRSQSFGVA [G5S], the protein stability index is 4.24.
For ETAARKGKGEARARLKRSQSFGVA [G5R], the protein stability index was 4.42.
With ETAAIKGKGEARARLKRSQSFGVA [G5I], the protein stability index is 3.91.
With ETAAWKGKGEARARLKRSQSFGVA [G5W], the protein stability index stood at 4.06.
For ETAAYKGKGEARARLKRSQSFGVA [G5Y], the protein stability index is 4.07.
For ETAAQKGKGEARARLKRSQSFGVA [G5Q], the protein stability index worked out at 4.39.
ETAANKGKGEARARLKRSQSFGVA [G5N]: the protein stability index worked out at 4.58.
In the case of ETAAMKGKGEARARLKRSQSFGVA [G5M], the protein stability index worked out at 3.93.
Turning to ETAAPKGKGEARARLKRSQSFGVA [G5P], the protein stability index was 4.52.
For the variant ETAAHKGKGEARARLKRSQSFGVA [G5H], the protein stability index stood at 4.77.
Regarding ETKAGKGKGEARARLKRSQSFGVA [A3K], the protein stability index was determined as 4.38.
Turning to ETYAGKGKGEARARLKRSQSFGVA [A3Y], the protein stability index was 3.74.
ETRAGKGKGEARARLKRSQSFGVA [A3R]: the protein stability index stood at 4.1.
The value for ETVAGKGKGEARARLKRSQSFGVA [A3V] was 4.33; that for ETTAGKGKGEARARLKRSQSFGVA [A3T] was 4.65; that for ETWAGKGKGEARARLKRSQSFGVA [A3W] was 4.27.
The value for ETSAGKGKGEARARLKRSQSFGVA [A3S] was 4.28; that for ETFAGKGKGEARARLKRSQSFGVA [A3F] was 4.28; that for ETHAGKGKGEARARLKRSQSFGVA [A3H] was 4.31.
For the variant ETNAGKGKGEARARLKRSQSFGVA [A3N], the protein stability index is 4.74.
For ETLAGKGKGEARARLKRSQSFGVA [A3L], the protein stability index stood at 4.8.
Consider ETGAGKGKGEARARLKRSQSFGVA [A3G], for which the protein stability index was determined as 4.54.
The value for ETPAGKGKGEARARLKRSQSFGVA [A3P] was 4.88; that for ETIAGKGKGEARARLKRSQSFGVA [A3I] was 4.13.
Regarding ETQAGKGKGEARARLKRSQSFGVA [A3Q], the protein stability index amounted to 4.56.
For the variant ETMAGKGKGEARARLKRSQSFGVA [A3M], the protein stability index was determined as 4.5.
ETAAGKGDGEARARLKRSQSFGVA [K8D]: the protein stability index was 5.01.
With ETAAGKGAGEARARLKRSQSFGVA [K8A], the protein stability index is 5.13.
In the case of ETAAGKGYGEARARLKRSQSFGVA [K8Y], the protein stability index was determined as 4.2.
As for ETAAGKGCGEARARLKRSQSFGVA [K8C], the protein stability index was 4.17.
As to ETAAGKGNGEARARLKRSQSFGVA [K8N], the protein stability index amounted to 4.8.
With ETAAGKGVGEARARLKRSQSFGVA [K8V], the protein stability index came to 4.62.
To ETAAGKGWGEARARLKRSQSFGVA [K8W] belongs 3.87; to ETAAGKGFGEARARLKRSQSFGVA [K8F], 4.29.
With ETAAGKGLGEARARLKRSQSFGVA [K8L], the protein stability index came to 4.
ETAAGKGIGEARARLKRSQSFGVA [K8I]: the protein stability index stood at 4.12.
Regarding ETAAGKGMGEARARLKRSQSFGVA [K8M], the protein stability index is 4.66.
As to ETAAGKGQGEARARLKRSQSFGVA [K8Q], the protein stability index was 5.13.
As to ETAAGKGGGEARARLKRSQSFGVA [K8G], the protein stability index amounted to 3.96.
ETAAGKGHGEARARLKRSQSFGVA [K8H]: the protein stability index came to 4.44.
ETAAGKGRGEARARLKRSQSFGVA [K8R]: the protein stability index was 4.38.
For ETAAGKGSGEARARLKRSQSFGVA [K8S], the protein stability index was 4.43.
On to ETAAGKGTGEARARLKRSQSFGVA [K8T], for which the protein stability index is 4.08.
ETAAGKGEGEARARLKRSQSFGVA [K8E]: the protein stability index stood at 4.89.
On to ETAAGKGPGEARARLKRSQSFGVA [K8P], for which the protein stability index was found to be 4.54.

These data come from the supplement of paper PMC10567573.
